Experimental data reported in IntAct's records for PubMed 19838187.

Key:
tnr6b_mouse Tnrc6b = tnr6b_mouse Tnrc6b (UniProt Q8BKI2)
tnr6c_human TNRC6C = tnr6c_human TNRC6C (UniProt Q9HCJ0)
tnr6b_human TNRC6B = tnr6b_human TNRC6B (UniProt Q9UPQ9)

Measured: effect of a mutation on the interaction

Protein argonaute-2 (Homo sapiens), Q9UKV8 F470V;F505V, sequence (Q9UKV8 whole entry F470V/F505V): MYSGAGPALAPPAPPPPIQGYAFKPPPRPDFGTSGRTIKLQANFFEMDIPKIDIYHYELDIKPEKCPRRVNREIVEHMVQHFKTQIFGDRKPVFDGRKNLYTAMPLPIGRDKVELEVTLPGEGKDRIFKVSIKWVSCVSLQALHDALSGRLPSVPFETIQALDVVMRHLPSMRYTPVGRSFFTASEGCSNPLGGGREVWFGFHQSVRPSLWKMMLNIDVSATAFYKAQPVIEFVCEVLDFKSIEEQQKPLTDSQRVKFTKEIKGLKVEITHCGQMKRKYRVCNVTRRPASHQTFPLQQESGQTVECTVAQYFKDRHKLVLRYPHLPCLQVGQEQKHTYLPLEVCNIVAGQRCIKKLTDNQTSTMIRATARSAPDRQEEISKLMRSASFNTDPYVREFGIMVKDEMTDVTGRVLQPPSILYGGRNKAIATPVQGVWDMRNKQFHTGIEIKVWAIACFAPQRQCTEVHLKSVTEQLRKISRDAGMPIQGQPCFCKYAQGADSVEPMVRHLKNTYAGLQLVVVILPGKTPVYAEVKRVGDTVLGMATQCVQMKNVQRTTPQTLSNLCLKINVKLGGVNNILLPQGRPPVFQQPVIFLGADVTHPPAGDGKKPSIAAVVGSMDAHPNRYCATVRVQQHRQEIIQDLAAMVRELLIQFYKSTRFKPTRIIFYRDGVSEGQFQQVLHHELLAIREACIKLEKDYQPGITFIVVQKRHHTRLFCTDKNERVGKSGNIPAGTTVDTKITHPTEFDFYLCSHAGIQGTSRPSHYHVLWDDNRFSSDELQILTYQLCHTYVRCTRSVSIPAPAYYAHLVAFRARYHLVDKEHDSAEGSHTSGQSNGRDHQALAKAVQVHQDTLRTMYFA
tnr6b_mouse Tnrc6b, sequence (Q8BKI2 whole entry): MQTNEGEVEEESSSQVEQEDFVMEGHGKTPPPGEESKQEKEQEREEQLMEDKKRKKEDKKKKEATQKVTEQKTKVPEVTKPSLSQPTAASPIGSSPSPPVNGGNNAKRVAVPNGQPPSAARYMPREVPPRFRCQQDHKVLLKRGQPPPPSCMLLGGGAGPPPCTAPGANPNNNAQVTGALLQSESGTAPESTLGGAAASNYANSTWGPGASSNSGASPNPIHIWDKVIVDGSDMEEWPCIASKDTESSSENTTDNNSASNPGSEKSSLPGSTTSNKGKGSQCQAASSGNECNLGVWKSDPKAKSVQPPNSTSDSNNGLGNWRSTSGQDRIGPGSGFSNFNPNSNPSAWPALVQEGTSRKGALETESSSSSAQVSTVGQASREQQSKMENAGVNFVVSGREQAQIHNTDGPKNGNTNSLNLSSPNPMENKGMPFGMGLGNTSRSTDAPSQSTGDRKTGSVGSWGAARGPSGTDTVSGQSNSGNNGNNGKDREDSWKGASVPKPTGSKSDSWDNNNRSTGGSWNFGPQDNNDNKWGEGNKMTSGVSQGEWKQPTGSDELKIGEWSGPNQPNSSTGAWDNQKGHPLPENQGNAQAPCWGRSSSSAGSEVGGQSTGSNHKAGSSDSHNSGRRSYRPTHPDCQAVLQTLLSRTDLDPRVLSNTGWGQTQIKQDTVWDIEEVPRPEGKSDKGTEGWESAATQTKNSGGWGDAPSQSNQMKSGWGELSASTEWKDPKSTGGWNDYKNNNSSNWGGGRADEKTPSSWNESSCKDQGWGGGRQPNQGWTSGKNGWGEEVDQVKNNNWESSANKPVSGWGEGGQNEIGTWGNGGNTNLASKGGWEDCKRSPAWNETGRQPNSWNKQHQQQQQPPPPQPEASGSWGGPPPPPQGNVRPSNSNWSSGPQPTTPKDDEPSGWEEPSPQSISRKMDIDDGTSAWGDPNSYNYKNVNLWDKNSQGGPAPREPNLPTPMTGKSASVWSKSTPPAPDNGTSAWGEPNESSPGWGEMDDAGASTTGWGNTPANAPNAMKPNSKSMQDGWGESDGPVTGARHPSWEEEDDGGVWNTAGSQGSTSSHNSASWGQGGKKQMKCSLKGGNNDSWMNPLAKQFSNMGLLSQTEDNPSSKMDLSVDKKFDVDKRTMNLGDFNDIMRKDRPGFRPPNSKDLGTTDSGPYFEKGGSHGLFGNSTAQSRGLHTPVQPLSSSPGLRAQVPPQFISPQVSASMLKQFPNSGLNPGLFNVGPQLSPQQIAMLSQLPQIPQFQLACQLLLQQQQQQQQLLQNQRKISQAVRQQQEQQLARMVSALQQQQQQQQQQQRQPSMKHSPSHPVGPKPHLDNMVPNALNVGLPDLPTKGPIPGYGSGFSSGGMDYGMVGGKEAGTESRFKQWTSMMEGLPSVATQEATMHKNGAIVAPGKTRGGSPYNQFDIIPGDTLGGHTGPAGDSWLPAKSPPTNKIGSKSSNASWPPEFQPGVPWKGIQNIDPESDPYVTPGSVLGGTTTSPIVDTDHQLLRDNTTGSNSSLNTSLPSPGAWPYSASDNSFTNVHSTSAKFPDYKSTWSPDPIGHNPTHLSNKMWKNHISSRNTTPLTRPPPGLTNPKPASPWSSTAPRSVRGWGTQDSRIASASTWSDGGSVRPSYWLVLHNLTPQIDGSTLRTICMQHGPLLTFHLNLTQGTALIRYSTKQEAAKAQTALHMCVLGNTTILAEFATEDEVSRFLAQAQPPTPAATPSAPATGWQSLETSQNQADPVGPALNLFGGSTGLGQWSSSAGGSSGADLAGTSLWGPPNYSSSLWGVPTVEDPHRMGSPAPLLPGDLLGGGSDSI
tnr6c_human TNRC6C, sequence (Q9HCJ0 whole entry): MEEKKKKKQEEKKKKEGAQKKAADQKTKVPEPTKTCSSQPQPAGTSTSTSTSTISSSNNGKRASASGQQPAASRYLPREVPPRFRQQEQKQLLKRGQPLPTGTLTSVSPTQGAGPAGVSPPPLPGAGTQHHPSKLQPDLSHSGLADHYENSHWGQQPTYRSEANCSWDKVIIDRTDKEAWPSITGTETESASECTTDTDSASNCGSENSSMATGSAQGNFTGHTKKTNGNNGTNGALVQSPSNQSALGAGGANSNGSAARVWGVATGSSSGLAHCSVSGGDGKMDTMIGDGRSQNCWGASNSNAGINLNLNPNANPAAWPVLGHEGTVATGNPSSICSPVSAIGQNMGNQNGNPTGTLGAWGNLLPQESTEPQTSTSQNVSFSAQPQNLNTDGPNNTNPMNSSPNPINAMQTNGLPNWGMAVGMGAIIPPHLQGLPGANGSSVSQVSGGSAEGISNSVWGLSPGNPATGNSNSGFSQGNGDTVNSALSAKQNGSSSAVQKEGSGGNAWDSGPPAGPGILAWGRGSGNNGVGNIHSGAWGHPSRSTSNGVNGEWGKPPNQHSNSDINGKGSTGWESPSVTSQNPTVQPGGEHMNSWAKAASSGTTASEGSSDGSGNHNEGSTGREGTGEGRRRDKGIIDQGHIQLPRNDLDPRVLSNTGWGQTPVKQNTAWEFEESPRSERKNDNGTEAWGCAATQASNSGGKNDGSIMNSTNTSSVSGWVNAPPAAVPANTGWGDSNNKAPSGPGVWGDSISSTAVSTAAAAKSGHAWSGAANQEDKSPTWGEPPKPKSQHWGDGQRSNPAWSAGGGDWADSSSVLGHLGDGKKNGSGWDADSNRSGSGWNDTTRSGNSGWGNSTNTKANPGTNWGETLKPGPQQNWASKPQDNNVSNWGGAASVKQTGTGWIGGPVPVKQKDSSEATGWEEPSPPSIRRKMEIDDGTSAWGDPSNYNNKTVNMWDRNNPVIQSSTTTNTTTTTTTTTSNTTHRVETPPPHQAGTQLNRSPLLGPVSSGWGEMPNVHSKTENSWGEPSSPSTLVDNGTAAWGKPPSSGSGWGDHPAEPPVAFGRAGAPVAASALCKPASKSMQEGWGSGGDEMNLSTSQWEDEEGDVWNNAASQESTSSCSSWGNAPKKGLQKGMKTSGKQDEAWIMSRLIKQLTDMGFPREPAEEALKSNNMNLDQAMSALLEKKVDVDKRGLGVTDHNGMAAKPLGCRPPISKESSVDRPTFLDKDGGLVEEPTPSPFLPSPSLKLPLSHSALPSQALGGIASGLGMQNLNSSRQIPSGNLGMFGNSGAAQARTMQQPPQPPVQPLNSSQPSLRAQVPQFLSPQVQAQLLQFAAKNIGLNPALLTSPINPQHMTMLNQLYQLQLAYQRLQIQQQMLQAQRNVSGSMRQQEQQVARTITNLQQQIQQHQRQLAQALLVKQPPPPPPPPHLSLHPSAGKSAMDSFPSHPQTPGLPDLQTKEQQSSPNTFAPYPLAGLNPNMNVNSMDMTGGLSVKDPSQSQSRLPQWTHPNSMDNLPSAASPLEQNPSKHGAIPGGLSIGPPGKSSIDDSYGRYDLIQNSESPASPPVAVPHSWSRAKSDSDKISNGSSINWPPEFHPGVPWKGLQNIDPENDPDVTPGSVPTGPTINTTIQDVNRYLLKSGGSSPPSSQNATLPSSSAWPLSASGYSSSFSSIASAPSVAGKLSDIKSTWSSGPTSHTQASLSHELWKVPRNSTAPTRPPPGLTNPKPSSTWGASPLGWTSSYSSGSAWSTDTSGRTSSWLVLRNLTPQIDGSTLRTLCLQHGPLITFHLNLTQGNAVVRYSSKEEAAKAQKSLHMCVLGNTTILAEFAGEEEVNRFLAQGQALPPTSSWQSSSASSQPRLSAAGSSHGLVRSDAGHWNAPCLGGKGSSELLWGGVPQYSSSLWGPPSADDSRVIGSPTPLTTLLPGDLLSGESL

Protein argonaute-2 (Homo sapiens), Q9UKV8 F470V;F505V
disrupting interaction: all assays above
